Data set [1] deals with total erythroid progenitors (BFU-E+CFU-E). In words: Inhibition of succinylacetone (SA) toxicity to erythroid progenitors in CFA. The format is cell-based, human. The conditions noted are these: 0.5 mM SA only, no other addition. The protocol:
(§1) The effect of the various additives on the inhibitory effect of succinylacetone (SA), a heme synthesis inhibitor, on erythroid progenitors was determined. Primary LDMNC were cultured in methyl cellulose as described in Example 1. Cord blood LDMN were plated in the presence of 1.0 mg/ml HAo (15.6 μM; n=12) or HEMOLINK™ (15.6 μM; n=5), 100 μM hemin (n=12), 250 μM FeCl3 (n=11) or no addition (n=12), in absence or presence of 0.5 mM SA. Cultures were maintained in a humidified chamber at 37° C., 5% CO2, and ambient oxygen tensions for 14 days.
Results are expressed as the number of total erythroid progenitors (BFU-E+CFU-E) present on plates treated with the various additives in the presence of SA relative to the number present on untreated plates (no SA or other addition). Significant differences in the presence of the respective additives compared to no addition (SA only; relative progenitor number=0.31) are as indicated: *p<0.001, **p<0.0001. Significant differences in the presence of the respective additives compared to no treatment (no SA; solid line at relative erythroid progenitor number=1.0) are as indicated: +p<0.05, ++p<0.001.

Data set [2] has as its system CFU-GM. In words: Colony formation assay (CFA), cord blood LDMNC: CFU-GM colonies. Format: cell-based, human. The protocol: (§2) This technique, referred to as the colony formation assay (CFA), is the most widely used biological assay to identify and enumerate erythroid progenitors present in hematopoietic tissue such as blood and bone marrow. Cell populations containing erythroid progenitors are plated in semi-solid suspensions of methyl cellulose, agar, low melting agarose or related substances in nutrient culture medium containing 1-3 U/ml Epo and 10 ng/ml IL-3 to specifically stimulate erythroid progenitors. Plates are incubated at 37° C. for 14 days during which time the erythroid progenitors form characteristic hemoglobinized (red) colonies. Two distinct but related erythroid progenitors can be distinguished based on colony size and morphology: BFU-E, the most primitive recognizable erythroid progenitor forms large multilobular colonies whereas the more mature CFU-E forms smaller spherical colonies.
(§3) Adult hemoglobin was purified according to U.S Pat. Nos. 5,439,591 and 5,545,328 to obtain HAo and HEMOLINK™ was prepared from HAo according to U.S. Pat. No. 5,532,352. Human umbilical cord blood intended for discard was collected from the umbilical vein of placentas immediately postpartum into 10 ml vacutainer tubes containing 143 USP units/ml sodium heparin. Low density mononuclear cells were separated from red blood cells by centrifugation over a 1.077 g/ml density gradient Cells removed from the plasma/density gradient interface were incubated overnight in a tissue culture flask with 10 ml cell culture medium containing 10% fetal bovine serum, and non-adherent LDMNC were further purified with an additional density gradient step. The LDMNC were then plated into colony formation assays (CFA) on the second day of isolation. In the CFA, LDMNC were plated at a density of 1×10^5 cells/ml in Iscoves modified Dulbeccos cell culture medium containing 0.8% methyl-cellulose, 30% fetal bovine serum, 1% bovine serum albumin, 0.1 mM 2-mercaptoethanol and 2 mM L-glutamine. Unless indicated otherwise, under standard CFA conditions 2 U/ml Epo and 10 ng/ml IL-3 are added to the formulation to stimulate hematopoietic progenitor growth, specifically BFU-E, CFU-E and CFU-GM.
(§4) Each condition was tested in duplicate in from 2-18 independent experiments. Cultures were maintained in a humidified incubator at 37° C., 5% CO2 and ambient oxygen tensions. The number of hematopoietic progenitors was scored between days 13-15 by counting the number and types of colonies present.
as §1
HEMOLINK™ was evaluated for its ability to protect erythroid progenitor cells from toxicity due to ganciclovir. Cord blood LDMNC were set up in CFAs in the presence and absence of 1 mg/ml HEMOLINK™ plus 0, 0.1, 1.0, 10, 50 or 100 μM ganciclovir. Conditions for the CFA were similar to those described in Examples 1-4. […] All data are expressed relative to the number of colonies of control plates without HEMOLINK™. The hematopoietic progenitors display different sensitivities to ganciclovir. CFU-E were unaffected by 1 μM ganciclovir. However, a similar inhibition of BFU-E occurs at a 50-fold lower dose of ganciclovir (1 μM). […] Due to the difficulty in scoring CFU-GM in the presence of hemoglobin precipitates, as previously noted, they could not be accurately measured under these conditions. Thus, HEMOLINK™ reduces toxicity of ganciclovir to erythroid progenitors with the most pronounced effect on BFU-E cells.

Data set [3] concerns CFU-E. In words: Colony formation assay (CFA), cord blood LDMNC: CFU-E colonies. Format: cell-based, human. The conditions noted are these: absence of HEMOLINK
The protocol: as §2, §3, §4
(§5) Erythroid progenitor colony formation assays were conducted as described in Example 1 except that cultures were incubated at either ambient oxygen tensions (˜20% O2) or 5% O2. The reduced oxygen tension of 5% O2 approximates the physiological intravascular oxygen tension in mammals. The mean fold increase in cord blood BFU-E, CFU-E and CFU-GM progenitor number at 5% O2 produced by 1.0 mg/ml HAo (15.6 μM; n=11) or HEMOLINK™ (15.6 μM; n=6), 100 μM hemin (n=10), 250 μM FeCl3 (n=6) or no addition (n=17-18), is shown FIG. 2. Results are expressed relative to control cells treated only with respective vehicles and cultured at ambient oxygen tensions (˜20% O2; fold expansion=1.0; *p<0.05, **p<0.01).
(§6) Erythroid progenitor colony formation assays were conducted as described in Example 1 except that cultures were initiated in the presence of Epo concentrations ranging from 0-2 U/ml. The mean fold increase in cord blood BFU-E, CFU-E and CFU-GM progenitor number produced by 1.0 mg/ml HAo (15.6 μM; n=9) or HEMOLINK™ (15.6 μM; n=6), 100 μM hemin (n=8), 250 μM FeCl3 (n=6), or no addition (n=9-10) in the presence of reduced Epo concentrations (0.2 U/ml) is shown in FIG. 3. Cultures were maintained at ambient oxygen tensions (˜20% O2) for 14 days. Results are expressed relative to control cells at 2 U/ml Epo treated only with the respective vehicles (solid line at fold expansion=1.0; *p<0.05, **p<0 01). Erythroid progenitor colonies were undetectable in the absence of Epo. […]

The test system of data set [4] is BFU-E. In words: Colony formation assay (CFA), cord blood LDMNC: BFU-E colonies. The following applies: 0.1-100 μM ganciclovir, absence of HEMOLINK
Format: cell-based, human. The protocol: as §2, §3, §4, §5, §6

The conditions of data set [5]: cited from earlier work.
Data set [6] can be described thus: Half-life and blood level of Epo versus HEMOLINK after single i.v. administration. Format: in vivo. The following applies: single i.v. 225 U/kg. From the text:
Another strategy for the co-administration of Epo and hemoglobin is to reduce the number of Epo administrations required during therapy. Several Epo therapies follow the regimen of three weekly injections, either intravenously or subcutaneously. Multiple low dose or single high dose injections of Epo are required due to its relatively short half-life in vivo. […] HEMOLINK™ has a longer half-life. […] Longer half-life of the cross-linked hemoglobin can therefore compensate for Epo which may decline at a much faster rate. Thus, hemoglobin co-administered with Epo could prolong the effectiveness of Epo and therefore this combination therapy can be used to reduce the required frequency of Epo administrations.

Here are results for three compounds from patent US20020120098A1, “Enhanced stimulation of erythropoiesis” (priority 1996, published 2002).

Like-named read-outs stand apart in the source and are kept apart here.

Consider `CC(=O)CC(=O)CCC(=O)O` [SA, Succinylacetone], for which the “relative erythroid progenitor number (BFU-E+CFU-E) vs untreated plates” value in data set [1] turned out to be 0.31. Moreover, in data set [2] (0.5 mM SA), the “effect of SA on CFU-GM proliferation” value is “did not inhibit CFU-GM proliferation”.

Regarding `Nc1nc(O)c2ncn(COC(CO)CO)c2n1` [ganciclovir], the “dose at which CFU-GM are completely inhibited” value in data set [2] (human, 14 days) is recorded as “greater than 10 μM”. Moreover, the “effect on CFU-E at 1 μM ganciclovir” value in data set [3] (1 μM ganciclovir) is on record as “unaffected”. In addition, the “inhibition of CFU-E by ganciclovir” value in data set [3] (0.1-100 μM ganciclovir) is “dose-dependent inhibition”. Besides, the “inhibition of BFU-E by ganciclovir” value in data set [4] is given as “dose-dependent inhibition”.

On to “Epo: recombinant human Epo; hormone that stimulates erythroid progenitors”, for which the results for the half-life in plasma in data set [5] (after a subcutaneous injection) and in data set [5] (after an intravenous injection) were 11.2 to 21.1 h and 5.6 to 8.8 h, respectively. Further, the “fraction of subcutaneous dose absorbed into the bloodstream” value in data set [5] (subcutaneous) is on record as 21.5-46.6%. Besides, the Epo level is listed as 2.7 U/ml in data set [6] (0 hours post administration, assuming 85 ml/kg); 0.33 U/ml in data set [6] (21 hours post administration); 0.041 U/ml in data set [6] (42 hours post administration); 0.0052 U/ml in data set [6] (63 hours post administration); 0.00065 U/ml in data set [6] (84 hours post administration).
